Experimental data: paper PMC2569942

Target: prophagic Cu,Zn superoxide dismutase SodC-F1 of E. coli O157:H7 (soluble recombinant mature enzyme from pO157-ΔCys) (E. coli O157:H7 EDL933)
Experiment: SEC

With “prophagic Cu,Zn superoxide dismutase SodC-F1 of E. coli O157:H7 (soluble recombinant mature enzyme from pO157-ΔCys)” the stoichiometry N was 2.
